{"source": "paper PMC9288512", "about": "(2022)", "binders": {"B1": {"name": "VHH-B11 (monovalent camelid nanobody against hPCSK9) (VHH)", "VHH": "QVQLQESGGGSVQAGGSLRLSCTVSGYTYSSNCMGWFRQAPGKEHEGVASIYIGGGSTYYADSVKGRFTISQDNAKNTVYLQMNSLKPEDTAMYYCAVGCQGLVDFGYWDQGTQVTVSS"}, "B2": {"name": "Llama VHH-human IgG4 hinge linker-IgG4 Fc chimeric HcAb (VHH-B11-Fc) (Fc fusion)", "chain": "B1 VHH"}}, "key": {"[1]": {"target": "T1, recombinant human proprotein convertase subtilisin/kexin 9 (hPCSK9), his-tagged (human, UniProt Q8NBP7 153-692)", "T1 sequence (Q8NBP7 153-692)": "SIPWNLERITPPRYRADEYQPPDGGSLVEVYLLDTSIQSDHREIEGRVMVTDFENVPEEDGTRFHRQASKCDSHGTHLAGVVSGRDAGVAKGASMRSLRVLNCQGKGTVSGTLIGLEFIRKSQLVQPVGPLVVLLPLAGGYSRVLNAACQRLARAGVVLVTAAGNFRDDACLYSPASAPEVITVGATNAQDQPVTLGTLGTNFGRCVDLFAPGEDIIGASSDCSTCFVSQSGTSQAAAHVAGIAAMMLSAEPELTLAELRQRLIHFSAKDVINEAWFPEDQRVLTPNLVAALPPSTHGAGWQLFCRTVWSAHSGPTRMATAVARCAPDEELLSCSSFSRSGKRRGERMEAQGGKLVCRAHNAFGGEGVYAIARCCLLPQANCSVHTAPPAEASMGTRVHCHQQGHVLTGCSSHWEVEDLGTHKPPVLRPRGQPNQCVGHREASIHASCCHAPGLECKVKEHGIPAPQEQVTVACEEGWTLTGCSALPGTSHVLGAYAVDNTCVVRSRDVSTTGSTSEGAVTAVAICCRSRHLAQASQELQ", "experiment": "SPR"}, "[2]": {"target": "T1, recombinant human proprotein convertase …", "experiment": "SPR", "remark": "listed apart in the source"}}}
{"binder": "B1", "values": [{"measurement": "Kd", "setting": "[1]", "result": "~5.01", "unit": "nM"}, {"measurement": "koff", "setting": "[2]", "result": 0.000174, "unit": "s⁻¹"}]}
{"binder": "B2", "values": [{"measurement": "Kd", "setting": "[1]", "result": 0.689, "unit": "nM"}, {"measurement": "koff", "setting": "[2]", "result": 0.00123, "unit": "s⁻¹"}]}
